These results are taken from publication PMC11217399, “Amyloid formation and depolymerization of tumor suppressor p16^INK4a are regulated by a thiol-dependent redox mechanism” (Nature Communications, 2024).

Data set [1] deals with wild-type 6xHis-tagged p16 expressed in HEK293 cells (human) (UniProt P42771). The experiment in a line: cross-linking; HEK293 cells transiently expressing p16-His variants, 200 µM H2O2 in media for the times indicated, stopped with 10 µg/mL catalase and 50 mM NEM; non-reducing SDS-PAGE and western blot for p16.
In data set [2] the target is endogenous p16 of Ishikawa cells (human (endogenous in Ishikawa cells)) (UniProt P42771). The experiment in a line: cross-linking; lysates of cancer cell lines without added oxidant, SDS lysis buffer, non-reducing SDS-PAGE and western blot for p16.
Data set [3] deals with the molecule itself. The experiment in a line: cross-linking; intermolecular disulfide formed by oxidant (20 µM p16, 200 µM diamide, or H2O2 with or without 25 mM bicarbonate), 4 mM HEPES pH 7.4, room temperature; free cysteines blocked with 10 mM NEM; non-reducing SDS-PAGE.
Data set [4] deals with the molecule itself. Put plainly: Thioflavin-T fluorescence (amyloid formation); 20 µM p16 (series 5-60 µM), 10 µM ThT, oxidant (200 µM diamide, or H2O2 with or without bicarbonate) added at the start, 4 mM HEPES pH 7.4, 25 °C, quiescent.

Changes are numbered by the printed parent chain. Numbers in names are those of the source.

Regarding “wild-type 6xHis-tagged p16 expressed in HEK293 cells (from UniProt P42771 1-156) (natural protein)”, the stoichiometry N in data set [1] amounted to 2.
As to “endogenous p16 of Ishikawa cells (from UniProt P42771 1-156) (natural protein)”, the stoichiometry N in data set [2] was 2.

B1: p16^INK4a, wild type (recombinant) (natural protein, human)
chain: GAMEPAAGSSMEPSADWLATAAARGRVEEVRALLEAGALPNAPNSYGRRPIQVMMMGSARVAELLLLHGAEPNCADPATLTRPVHDAAREGFLDTLVVLHRAGARLDVRDAWGRLPVDLAEELGHRDVARYLRAAAGGTRGSNHARIDAAEGPSDIPD
notes: p16INK4a, UniProt P42771; Self-association needs oxidation of Cys72 (diamide or H2O2): intermolecular disulfide dimer, then oligomers and amyloid fibrils; Constructs obtained from Genscript; also called wild-type p16; monomeric p16; source: E. coli BL21(DE3), purified (Ni-NTA, SEC, TEV cleavage, second Ni-NTA, desalting); not shown: His6, N-terminal, cleaved; protein A tag, N-terminal, cleaved
B1: the “stoichiometry N” value in data set [3] is 2.

B2: p16^INK4a A20S (recombinant) (natural protein, human)
chain: B1 chain with A22S
notes: p16INK4a, UniProt P42771; previously reported cancer mutation; source: E. coli BL21(DE3), purified (Ni-NTA, SEC, TEV cleavage, second Ni-NTA, desalting); not shown: His6, N-terminal, cleaved; protein A tag, N-terminal, cleaved
For the molecule B2, in data set [4], the binding result is recorded as “binds”.

B3: p16^INK4a A127S (recombinant) (natural protein, human)
chain: B1 chain with A129S
notes: as for B2
For the molecule B3, in data set [4], the binding result is given as “binds”.

B4: p16^INK4a G122S (recombinant) (natural protein, human)
chain: B1 chain with G124S
notes: as for B2
For the molecule B4, the binding result in data set [4] is recorded as “binds”.

B5: p16^INK4a V95A (recombinant) (natural protein, human)
chain: B1 chain with V97A
notes: as for B2
Consider B5, for which the binding result in data set [4] is “binds”.

B6: p16^INK4a L37S (recombinant, stabilizing mutation) (natural protein, human)
chain: B1 chain with L39S
notes: p16INK4a, UniProt P42771; source: E. coli BL21(DE3), purified (Ni-NTA, SEC, TEV cleavage, second Ni-NTA, desalting); not shown: His6, N-terminal, cleaved; protein A tag, N-terminal, cleaved
On to B6, for which the binding result in data set [4] is “binds”.

B7: p16^INK4a D84N (recombinant) (natural protein, human)
chain: B1 chain with D86N
notes: as for B2
As for B7, the binding result in data set [4] is reported as “binds”.
